For one substance, IC50 and Volume Adjusted OD450nm results are on record in patent US20130149237A1.

Test [1] deals with Recombinant human ApoER2 (R&D Systems #3520-AR) (human) (UniProt Q14114). Description: direct ELISA: wells coated with 1 ug/ml recombinant human ApoER2, antibody titrated, HRP anti-mouse IgG detection. On the technique in general: An ELISA detects its analyte on a solid surface through an enzyme-linked reagent.
Test [2] shares this target. Description: ELISA on plates coated with 1 µg/ml recombinant human ApoER2; sample: Apical/Luminal medium of the transwell with Empty Filter.
Test [3] has the same target. As to the kind of experiment: ELISA on plates coated with 1 µg/ml recombinant human ApoER2; sample: Apical/Luminal medium of the transwell with hCMEC/D3 cells.
Test [4] shares this target. As to the kind of experiment: ELISA on plates coated with 1 µg/ml recombinant human ApoER2; sample: Basolateral/Abluminal medium of the transwell with hCMEC/D3 cells, antibody premixed with a 10-fold excess of soluble recombinant human ApoER2.
For test [5] the target is unchanged. Description: ELISA on plates coated with 1 µg/ml recombinant human ApoER2; sample: Basolateral/Abluminal medium of the transwell with hCMEC/D3 cells.
Test [6] has the same target. As to the kind of experiment: ELISA on plates coated with 1 µg/ml recombinant human ApoER2; sample: Basolateral/Abluminal medium of the transwell with Empty Filter.
For test [7] the target is unchanged. As to the kind of experiment: ELISA on plates coated with 1 µg/ml recombinant human ApoER2; sample: Apical/Luminal medium of the transwell with hCMEC/D3 cells, antibody premixed with a 10-fold excess of soluble recombinant human ApoER2 (low value put down to interference in the ELISA).

Sequence of UniProt Q14114 (Q14114 other isoform, or with tags, fused parts or gaps limits assumed): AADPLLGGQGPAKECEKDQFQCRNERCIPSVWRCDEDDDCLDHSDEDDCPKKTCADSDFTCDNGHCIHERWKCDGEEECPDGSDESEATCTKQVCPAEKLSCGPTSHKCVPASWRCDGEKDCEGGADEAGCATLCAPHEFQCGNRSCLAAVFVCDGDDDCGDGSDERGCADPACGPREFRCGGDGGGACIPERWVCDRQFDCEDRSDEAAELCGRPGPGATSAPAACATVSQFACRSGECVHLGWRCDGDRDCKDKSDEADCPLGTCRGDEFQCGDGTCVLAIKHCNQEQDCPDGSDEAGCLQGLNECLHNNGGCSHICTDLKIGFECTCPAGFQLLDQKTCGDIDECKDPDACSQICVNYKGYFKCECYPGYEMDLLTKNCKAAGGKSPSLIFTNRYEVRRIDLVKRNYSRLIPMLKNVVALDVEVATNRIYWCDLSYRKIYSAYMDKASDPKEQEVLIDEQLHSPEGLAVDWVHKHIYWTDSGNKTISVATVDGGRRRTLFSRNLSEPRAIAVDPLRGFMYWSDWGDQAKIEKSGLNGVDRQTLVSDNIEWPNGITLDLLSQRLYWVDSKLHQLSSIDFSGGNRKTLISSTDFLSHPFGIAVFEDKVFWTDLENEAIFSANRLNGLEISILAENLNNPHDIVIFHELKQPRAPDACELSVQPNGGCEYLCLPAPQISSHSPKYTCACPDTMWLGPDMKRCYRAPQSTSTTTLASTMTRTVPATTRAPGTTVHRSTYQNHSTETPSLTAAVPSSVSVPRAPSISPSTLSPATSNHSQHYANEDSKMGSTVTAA

For the substance “mouse monoclonal anti-human ApoER2 antibody (Abcam ab58216)”, the IC50 (as a rule, the concentration at which inhibition is half-maximal) in test [1] worked out at 0.068 µg/mL. Also, the Volume Adjusted OD450nm in test [2] worked out at 2.75 OD450nm; in test [3], 3.57 OD450nm; in test [4] it was 0.0789 OD450nm; in test [5], 0.138 OD450nm; in test [6], 0.362 OD450nm; in test [7], 0.537 OD450nm.
